# In patent US11845793B2, “Anti-ROR1 antibodies” (NBE-THERAPEUTICS AG, dated 2023):
# Key:
# [1] = biological target: T1, StrepII-tagged ROR1-extracellular domain (human, UniProt Q01973); assay: SPR (Biacore T200), purified mAb captured by anti-human Fc, ROR1-strep as analyte, 1:1 model
# [2] = biological target: T1, StrepII-tagged ROR1-extracellular domain; assay: SPR (Biacore T200), IgG from HEK293T supernatant captured by anti-human Fc, ROR1-strep as analyte, 1:1 model
# Protocol: For initial determination of huR12 clone affinities and parental R12 using transient HEK293T supernatants, IgG expression vectors were transiently transfected into 293T cells and IgG titers in supernatants were quantified by ELISA. For SPR, supernatants were diluted to 1 µg/ml IgG with running buffer (HBS-EP+pH 7.4 (10 mM HEPES, 150 mM NaCl, 3 mM EDTA, 0.05% Tween® 20)) and captured for 200s with a flow of 30 µl/min. ROR1-strep was diluted in running buffer using 2-fold serial dilutions ranging from 20 nM to 2.5 nM. Association was measured at a flow of 30 µl/min for 120s, and dissociation was followed for 1000s. Capture levels ranged from 26.9 RU to 54.1 RU.
# T1 sequence (Q01973 other isoform, or with tags, fused parts or gaps): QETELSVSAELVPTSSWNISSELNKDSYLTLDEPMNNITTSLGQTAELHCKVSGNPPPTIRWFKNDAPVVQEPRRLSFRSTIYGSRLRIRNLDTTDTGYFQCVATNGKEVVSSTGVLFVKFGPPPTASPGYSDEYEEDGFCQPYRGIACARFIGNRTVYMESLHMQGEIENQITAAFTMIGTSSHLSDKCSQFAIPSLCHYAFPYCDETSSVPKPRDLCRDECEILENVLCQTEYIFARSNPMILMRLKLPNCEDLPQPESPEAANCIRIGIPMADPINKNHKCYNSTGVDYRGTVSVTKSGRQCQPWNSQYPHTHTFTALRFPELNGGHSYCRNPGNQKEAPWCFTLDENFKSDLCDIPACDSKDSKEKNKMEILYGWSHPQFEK
Binder,Kd [1] [nM],koff [1] [s⁻¹],kon [1] [M⁻¹ s⁻¹],Kd [2] [nM],koff [2] [s⁻¹],kon [2] [M⁻¹ s⁻¹]
"chimeric mAb 2A2 (antibody, V domains shown) VH: QVQLQQSGAELVRPGASVTLSCKASGYTFSDYEMHWVIQTPVHGLEWIGAIDPETGGTAYNQKFKGKAILTADKSSSTAYMELRSLTSEDSAVYYCTGYYDYDSFTYWGQGTLVTVSA VL: DIVMTQSQKIMSTTVGDRVSITCKASQNVDAAVAWYQQKPGQSPKLLIYSASNRYTGVPDRFTGSGSGTDFTLTISNMQSEDLADYFCQQYDIYPYTFGGGTKLEIK",5.7,0.00968,1.69e+06,–,–,–
"hu2A2-D23, humanized from 2A2 (antibody, V domains shown) VH: QVQLVESGAEVKKPGASVKLSCKASGYTFSDYEMHWVRQAPGQRLEWMGAIDPETGGTAYNQKFKGRVTITVDKSASTAYMELSSLRSEDTAVYYCTGYYDYDSFTYWGPGTTVTVSS VL: DIVMTQSPSTLSASVGDRVTITCKASQNVDAAVAWYQQKPGTAPKLLIYSASNRYTGVPSRFSGSGSGTEFTLTISSLQSEDLADYFCQQYDIYPYTFGQGTKLEIK",8,0.0138,1.72e+06,–,–,–
"hu2A2-D16, humanized from 2A2 (antibody, V domains shown) VH: EVQLVESGAEVKKPGASVKVSCKASGYTFSDYEMHWVRQAPGQGLEWVGAIDPETGGTAYNQKFKGRVTMTRDTSTSTVYMELSSLRSEDTAVYYCTGYYDYDSFTYWGQGTLVTVSS VL: DIQMTQSPSSLSASVGDRVTITCKASQNVDAAVAWYQQKPGKAPKLLIYSASNRYTGIPTRFSGSGSGTDFTLTISSLQSEDLADYFCQQYDIYPYTFGQGTKVEIK",10.9,0.0189,1.73e+06,–,–,–
"chimeric mAb R11 (antibody, V domains shown) VH: QSVKESEGDLVTPAGNLTLTCTASGSDINDYPISWVRQAPGKGLEWIGFINSGGSTWYASWVKGRFTISRTSTTVDLKMTSLTTDDTATYFCARGYSTYYGDFNIWGPGTLVTISS VL: ELVMTQTPSSTSGAVGGTVTINCQASQSIDSNLAWFQQKPGQPPTLLIYRASNLASGVPSRFSGSRSGTEYTLTISGVQREDAATYYCLGGVGNVSYRTSFGGGTEVVVK",3.4,0.00328,957000,–,–,–
"rbQ11, humanized from R11 (antibody, V domains shown) VH: EVQLVQSGGGLVQPGGSLRLSCAASGSDINDYPISWVRQAPGKGLEWVSFINSGGSTWYASWVKGRFTISRDNAKNSLYLQMNSLRDDDTATYFCARGYSTYYGDFNIWGQGTLVTVSS VL: DIVMTQSPSSLSASVGDRVTITCQASQSIDSNLAWFQQKPGKAPKSLIYRASNLASGVPSKFSGSGSGTDFTLTISSLQREDAATYYCLGGVGNVSYRTSFGGGTKVEIK",6.1,0.00498,821000,–,–,–
"rbQ12, humanized from R11 (antibody, V domains shown) VH: EVQLVESGGGLVQPGGSLRLSCAASGSDINDYPISWVRQAPGKGLEWVSFINSGGSTWYASWVKGRFTISRDNAKNSLYLQMNSLRADDTATYFCARGYSTYYGDFNIWGQGTMVTVSS VL: EIVMTQSPSSLSASVGDRVTITCQASQSIDSNLAWFQQKPGKAPNLLIYRASNLASGVPSRFSGSGSGTEFTLTISSLQREDAATYYCLGGVGNVSYRTSFGQGTKVEIK",14.2,0.0104,733000,–,–,–
"rbD4, humanized from R11 (antibody, V domains shown) VH: EVQLVESGGGLVQPGRSLRLSCTASGSDINDYPISWFRQAPGKGLEWVGFINSGGSTWYASWVKGRFTISRDDSKSIAYLQMNSLKTDDTATYFCARGYSTYYGDFNIWGQGTTVTVSS VL: DVVMTQSPSSLSASVGDRVTITCQASQSIDSNLAWFQQKPGKAPNLLIYRASNLASGVPSRFSGSGSGTEFTLTISSLQREDAATYYCLGGVGNVSYRTSFGQGTKVEIK",9,0.0071,785000,–,–,–
"huR12_11, humanized from R12 (antibody, V domains shown) VH: QVQLVESGGALVQPGGSLTLSCKASGFDFSAYYMSWVRQAPGKGLEWIATIYPSSGKTYYAASVQGRFTISADNAKNTVYLQMNSLTAADTATYFCARDSYADDGALFNIWGQGTLVTVSS VL: QLVLTQSPSVSAALGSSAKITCTLSSAHKTDTIDWYQQLAGQAPRYLMYVQSDGSYEKRSGVPDRFSGSSSGADRYLIISSVQADDEADYYCGADYIGGYVFGGGTQLTVG",–,–,–,0.084,9.65e-05,1.15e+06
"huR12_4, humanized from R12 (antibody, V domains shown) VH: QVQLVESGGELVQPGGSLTLSCKASGFDFSAYYMSWVRQAPGKGLEWIATIYPSSGKTYYAASVQGRFTISADNAKNTVYLQMNSLTAADTATYFCARDSYADDGALFNIWGKGTLVTVSS VL: QLVLTQSPSVSAALGSSAKITCTLSSAHKTDTIDWYQQLAGQAPRYLMYVQSDGSYEKRSGVPDRFSGSASGADRYLAISRVQADDEADYYCGADYIGGYVFGGGTQLTVLG",–,–,–,0.091,9.93e-05,1.09e+06
"huR12_16, humanized from R12 (antibody, V domains shown) VH: QVQLVESGGELVTPGGSLTLSCKASGFDFSAYYMSWVRQAPGKGLEWIASIYPSSGKTYYAAAVQGRFTISADNAKNTVYLQMNSLTAADTATYFCARDSYADDGALFNIWGQGTLVTVSS VL: QLVLTQSPSVSAALGSSAKITCTLSSAHKTDTIDWYQQLAGQAPRYLMYVQSDGSYEKRSGVPDRFSGSSSGADRYLIISSVQADDEADYYCGADYIGGYVFGGGTQLTVG",–,–,–,0.092,8.79e-05,960000
"huR12_7, humanized from R12 (antibody, V domains shown) VH: QVQLVESGGELVQPGGSLTLSCKASGFDFSAYYMSWVRQAPGKGLEWIATIYPSSGKTYYAASVQGRFTISADNAKNTVSLQMNSLTAADTATYFCARDSYADDGALFNIWGKGTLVTVSS VL: QLVLTQSPSVSAALGSSAKITCTLSSAHKTDTIDWYQQLAGQAPRYLMYVQSDGSYEKRSGVPDRFSGSSSGADRYLIISSVQADDEADYYCGADYIGGYVFGGGTQLTVLG",–,–,–,0.11,0.000116,1.05e+06
"hu2A2b-Q11, humanized from 2A2 (antibody, V domains shown) VH: EVQLVQSGAEVKKPGASVKVSCKASGYTFSDYEMHWVRQAPGQGLEWLGAIDPETGGTAYNQKFKGRVTMTGDTSISTAYMELSRLTSDDTAVYYCTGYYDYDSFTYWGQGTLVSVSS VL: DIQMTQSPSSLSTSVGDRVTITCKASQNVDAAVAWYQQKPGKAPKLLIYSASNRYTGVASRFSGSGSGTDFTFTISSLQSEDLADYFCQQYDIYPYTFGQGTKLEIK",9.9,0.0173,1.75e+06,–,–,–
"Chimeric mAb R12 (antibody, V domains shown) VH: QEQLVESGGRLVTPGGSLTLSCKASGFDFSAYYMSWVRQAPGKGLEWIATIYPSSGKTYYATWVNGRFTISSDNAQNTVDLQMNSLTAADRATYFCARDSYADDGALFNIWGPGTLVTISS VL: ELVLTQSPSVSAALGSPAKITCTLSSAHKTDTIDWYQQLQGEAPRYLMQVQSDGSYTKRPGVPDRFSGSSSGADRYLIIPSVQADDEADYYCGADYIGGYVFGGGTQLTVT",–,–,–,1.03,0.000361,349000
